Drawing on PMC2828913, this text covers percent retained in the collagen gel after washes for 1 substance.

The assay concerns the target Collagen matrix (Purecol) (UniProt P02453). The assay can be described thus: retention in a polymerised collagen gel.
Sequence of UniProt P02453 (P02453 162-1217, chain 1 of 2): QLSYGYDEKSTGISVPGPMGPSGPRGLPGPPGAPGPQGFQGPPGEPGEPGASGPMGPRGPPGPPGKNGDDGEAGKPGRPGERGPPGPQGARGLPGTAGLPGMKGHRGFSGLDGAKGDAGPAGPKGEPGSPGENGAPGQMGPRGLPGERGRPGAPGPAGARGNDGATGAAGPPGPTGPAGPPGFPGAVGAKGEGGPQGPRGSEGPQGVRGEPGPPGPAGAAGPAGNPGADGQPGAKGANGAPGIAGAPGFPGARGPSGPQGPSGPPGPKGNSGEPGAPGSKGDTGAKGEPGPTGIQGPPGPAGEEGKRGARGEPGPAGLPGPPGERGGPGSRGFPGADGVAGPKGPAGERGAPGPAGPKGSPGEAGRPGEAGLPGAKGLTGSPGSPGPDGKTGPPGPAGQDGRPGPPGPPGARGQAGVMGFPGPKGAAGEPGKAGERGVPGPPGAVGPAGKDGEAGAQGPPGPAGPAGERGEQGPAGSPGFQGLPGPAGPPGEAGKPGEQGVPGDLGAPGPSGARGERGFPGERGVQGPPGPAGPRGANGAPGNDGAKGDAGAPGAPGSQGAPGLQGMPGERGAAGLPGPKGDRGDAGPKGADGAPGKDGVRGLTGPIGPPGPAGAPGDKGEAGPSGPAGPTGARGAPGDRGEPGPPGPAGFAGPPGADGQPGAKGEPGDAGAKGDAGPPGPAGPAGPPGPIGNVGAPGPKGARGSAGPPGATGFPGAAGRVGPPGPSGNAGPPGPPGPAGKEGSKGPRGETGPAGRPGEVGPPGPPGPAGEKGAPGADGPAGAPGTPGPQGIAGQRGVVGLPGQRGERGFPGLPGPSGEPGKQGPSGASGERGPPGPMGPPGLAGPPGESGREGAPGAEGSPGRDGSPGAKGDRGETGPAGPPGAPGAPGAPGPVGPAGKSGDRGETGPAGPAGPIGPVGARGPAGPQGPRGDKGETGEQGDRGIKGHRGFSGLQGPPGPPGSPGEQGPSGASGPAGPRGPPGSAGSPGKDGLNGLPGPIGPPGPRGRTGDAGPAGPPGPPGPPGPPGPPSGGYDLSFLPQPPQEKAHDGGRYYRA
Sequence of UniProt P02453 (P02465 80-1117, chain 2 of 2, further chain): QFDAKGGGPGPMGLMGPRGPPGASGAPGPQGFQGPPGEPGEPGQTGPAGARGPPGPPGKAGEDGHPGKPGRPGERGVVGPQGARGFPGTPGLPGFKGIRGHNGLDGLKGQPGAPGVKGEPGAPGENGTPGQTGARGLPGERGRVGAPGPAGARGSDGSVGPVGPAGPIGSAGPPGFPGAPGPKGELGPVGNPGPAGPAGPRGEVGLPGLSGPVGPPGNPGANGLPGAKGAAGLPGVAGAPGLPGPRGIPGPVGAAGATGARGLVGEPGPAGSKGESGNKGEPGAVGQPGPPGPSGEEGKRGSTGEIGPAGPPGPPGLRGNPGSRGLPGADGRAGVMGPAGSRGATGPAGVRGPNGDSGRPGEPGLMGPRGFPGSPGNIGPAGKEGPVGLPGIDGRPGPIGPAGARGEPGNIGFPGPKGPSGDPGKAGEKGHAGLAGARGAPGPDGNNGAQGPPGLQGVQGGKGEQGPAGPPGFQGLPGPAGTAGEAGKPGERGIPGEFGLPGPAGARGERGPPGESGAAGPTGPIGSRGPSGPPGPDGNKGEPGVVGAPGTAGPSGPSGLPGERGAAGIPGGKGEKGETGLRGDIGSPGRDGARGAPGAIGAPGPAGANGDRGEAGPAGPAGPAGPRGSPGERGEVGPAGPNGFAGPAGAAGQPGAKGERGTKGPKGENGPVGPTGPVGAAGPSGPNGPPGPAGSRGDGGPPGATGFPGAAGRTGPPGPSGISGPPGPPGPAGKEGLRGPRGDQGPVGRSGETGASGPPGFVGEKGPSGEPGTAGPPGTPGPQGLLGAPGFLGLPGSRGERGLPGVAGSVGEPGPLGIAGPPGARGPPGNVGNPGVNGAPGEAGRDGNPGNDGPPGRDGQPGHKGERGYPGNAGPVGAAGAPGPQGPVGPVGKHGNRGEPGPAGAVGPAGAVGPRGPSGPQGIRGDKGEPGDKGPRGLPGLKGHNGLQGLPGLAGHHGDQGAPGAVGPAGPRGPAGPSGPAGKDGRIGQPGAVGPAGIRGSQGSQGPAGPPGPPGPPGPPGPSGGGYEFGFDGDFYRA

Substance Human VEGF165 (ligand) displayed a percent retained in the collagen gel after washes greater than 80%.
